# Values quoted from earlier work in paper PMC12207913.
# Target: E6AP (Homo sapiens) (UniProt Q05086)
# Test: SPR
# UniProt Q05086, sequence (Q05086 whole entry): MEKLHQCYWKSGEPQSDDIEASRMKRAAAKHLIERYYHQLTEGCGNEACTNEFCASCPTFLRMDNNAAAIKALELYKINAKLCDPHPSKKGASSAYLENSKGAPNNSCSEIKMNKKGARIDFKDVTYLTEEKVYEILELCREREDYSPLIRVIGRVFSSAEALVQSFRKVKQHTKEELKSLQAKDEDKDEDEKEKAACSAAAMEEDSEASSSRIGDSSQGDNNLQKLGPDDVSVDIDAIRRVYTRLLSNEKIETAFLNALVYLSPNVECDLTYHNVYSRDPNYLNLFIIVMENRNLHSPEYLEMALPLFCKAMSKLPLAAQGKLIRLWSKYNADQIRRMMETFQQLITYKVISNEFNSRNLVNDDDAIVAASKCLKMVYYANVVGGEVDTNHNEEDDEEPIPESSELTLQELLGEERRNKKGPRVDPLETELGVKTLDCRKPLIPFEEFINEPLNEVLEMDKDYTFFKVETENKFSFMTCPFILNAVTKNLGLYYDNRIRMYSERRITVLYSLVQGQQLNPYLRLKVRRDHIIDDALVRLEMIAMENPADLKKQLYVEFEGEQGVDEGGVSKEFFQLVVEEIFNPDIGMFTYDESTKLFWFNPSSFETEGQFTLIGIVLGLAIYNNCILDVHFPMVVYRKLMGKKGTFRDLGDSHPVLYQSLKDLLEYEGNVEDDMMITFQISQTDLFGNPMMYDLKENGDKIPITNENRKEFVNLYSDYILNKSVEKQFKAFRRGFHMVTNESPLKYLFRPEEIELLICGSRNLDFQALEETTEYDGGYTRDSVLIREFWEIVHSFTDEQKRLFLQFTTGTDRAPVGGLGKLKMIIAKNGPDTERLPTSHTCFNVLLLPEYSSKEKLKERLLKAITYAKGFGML
substance,measurement,value
HPV16 E6 (from UniProt P03126),Kd,0.144 nM
